According to patent publication US10442866 (BEIJING MABWORKS BIOTECH, dated 2019):
Where two headings read alike, the source gives them in different places.

T1: recombinant human OX40-his (Sino Biological, Cat#:10481-H03H) (human, UniProt P43489 29-214)
T1 construct: bought protein; also called hOX40-his; not shown: His tag
T1 sequence: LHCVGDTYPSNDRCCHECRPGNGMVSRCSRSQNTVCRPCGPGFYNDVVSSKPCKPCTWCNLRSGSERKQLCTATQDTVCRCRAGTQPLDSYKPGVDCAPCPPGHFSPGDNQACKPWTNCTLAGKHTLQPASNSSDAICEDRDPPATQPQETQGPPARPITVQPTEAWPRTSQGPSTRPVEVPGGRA

T2: recombinant rhesus OX40-his (Sino Biological, Cat#:90846-C08H) (rhesus monkey, UniProt P43489 29-214 (human entry))
T2 construct: bought protein; also called monkey OX40-his; rhOX40-his; not shown: His tag
T2 chain: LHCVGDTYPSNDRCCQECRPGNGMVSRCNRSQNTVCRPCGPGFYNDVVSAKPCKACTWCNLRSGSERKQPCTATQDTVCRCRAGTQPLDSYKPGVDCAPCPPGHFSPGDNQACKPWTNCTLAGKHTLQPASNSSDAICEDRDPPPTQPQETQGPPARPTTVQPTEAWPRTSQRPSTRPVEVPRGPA

T3: murine OX40-His (Crown, Cat#: E3350-B1707) (mouse, UniProt P47741 20-211)
T3 construct: bought protein; also called mouse OX40-his; muOX40-his; not shown: His tag
T3 sequence: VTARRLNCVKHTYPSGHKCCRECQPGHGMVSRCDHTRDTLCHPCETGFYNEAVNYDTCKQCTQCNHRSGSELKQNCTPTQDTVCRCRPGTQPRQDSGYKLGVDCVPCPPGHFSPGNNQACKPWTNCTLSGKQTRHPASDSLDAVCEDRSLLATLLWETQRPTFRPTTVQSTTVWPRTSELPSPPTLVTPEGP


Experiments:
[1] = target: T1, recombinant human OX40-his (Sino …); assay: ELISA on coated human OX40-his, OD450
[2] = target: T1, recombinant human OX40-his (Sino …); assay: SPR Biacore 8K, OX40-His on chip, antibody injected
Method: SPR assays were used to determine the binding affinity of the chimetic or humanized anti-OX40 antibodies to human OX40 with the BIAcore™ 8K instrument (GE Life Sciences). Briefly, 100-200 response units (RU) of human OX40-His protein (Sino Biological, CN, Cat#:10481-H03H, Lot no.: MA08MA3003) were coupled to CM5 biosensor chips (Cat#: BR-1005-30, GE Life Sciences), followed by blocking of un-reacted groups with 1M ethanolamine. Serially diluted antibodies at concentrations ranging from 0.3 µM to 10 µM were injected into the SPR running buffer (HBS-EP buffer, pH7.4, GE Life Sciences; US; Cat#:BR-1006-69) at 30 µL/minute. The binding capacitity was calculated with the RUs of blank controls subtracted. The association rate (k_a) and dissociation rate (k_d) were calculated using the one-to-one Langmuir binding model (BIA Evaluation Software, GE Life Sciences). The equilibrium dissociation constant K_D was calculated as the k_d/k_a ratio.

[3] = target: T2, recombinant rhesus OX40-his (Sino …); assay: ELISA on coated rhesus OX40-His, OD450
[4] = target: T3, murine OX40-His (Crown, Cat#: …); assay: ELISA on coated mouse OX40-His, OD450
[5] = target: T1, recombinant human OX40-his (Sino …); assay: ELISA on coated human OX40-His, OD450
[6] = target: T1, recombinant human OX40-his (Sino …); assay: ELISA on coated human OX40-his, OD450; remark: listed apart in the source
[7] = target: T2, recombinant rhesus OX40-his (Sino …); assay: ELISA on coated rhesus OX40-His, OD450
[8] = target: T3, murine OX40-His (Crown, Cat#: …); assay: ELISA on coated mouse OX40-His, OD450; remark: listed apart in the source

EC50 (read off the curve) [1] [ng/mL]	Kd [2] [nM]	koff [2] [s⁻¹]	kon [2] [M⁻¹ s⁻¹]	binding result [3]	binding result [4]	EC50 (read off the curve) [5] [ng/mL]	EC50 (read off the curve) [6] [ng/mL]	EC50 (read off the curve) [7] [ng/mL]	binding result [8]	Binder
~3	1.96	0.000927	473000	binds	no binding (tested: 10000 ng/ml (log 4))	–	–	–	–	68C8-VH2VL3 (antibody, human IgG1, kappa, V domains shown, humanized; also called 68C8-H2L3; 68C8H2L3) VH: QVQLVQSGAEVKKPGASVKVSCKVSGDTFTSYWITWVRQRPGKGLEWMGDIHPGSGSTNNNEKFKNRVTMTVDTSTDTAYMELSSLRSEDTAVYYCATLRPYYFVYWGQGTLVTVSS VL: DIQMTQSPSSLSASVGDRVTITCRASQDISNYLNWYQQKPGKTVKLLIYYTSRLLSGVPSRFSGSGSGTDYTLTISSLQPEDFATYFCQQGNTLPLTFGQGTRLEIKR
–	4.57	0.00198	434000	–	–	~3	~7	~3	no binding (tested: 10000 ng/ml (log 4))	71H8-VH2VL3 (antibody, human IgG1, kappa, V domains shown, humanized; also called 71H8-H2L3; 71H8H2L3) VH: QVQLVQSGAEVKKPGASVKVSCKVSGYTFTSYWITWVRQRPGKGLEWMGDIYPGSGSTNQNEKFKSRVTMTVDTSTDTAYMELSSLRSEDTAVYYCATLRPYYFVYWGQGTLVTVSS VL: DIQMTQSPSSLSASVGDRVTITCRASQDISNYLNWYQQKPGKTVKLLIYYTSRLLSGVPSRFSGSGSGTDYTLTISSLQPEDFATYFCQQGNTLPLTFGQGTRLEIKR
